Holding throughout (conditions): remark: other sources report otherwise
Test [1] has as its target T1, LFA-1 (lymphocyte function-associated antigen-1), purified heterodimer captured on ELISA plates (human), P20701. As to the kind of experiment: LFA-1/ICAM-1 ELISA: sICAM-1 titrated against ICAM-1-Ig on antibody-captured LFA-1; reference compound 3 (2 nM IC50). (An ELISA detects its analyte on a solid surface through an enzyme-linked reagent.)
For test [2], the target named is T1, LFA-1 (lymphocyte function-associated …).
Test [3] has the same target. As to the kind of experiment: LFA-1/small molecule ELISA: sICAM-1 titrated against 25 nM fluorescein-labelled compound 2B on antibody-captured LFA-1.

A value given as a limit tells only on which side of the number the result lay.

T1 sequence (P20701 26-1170 limits assumed, form in doubt, chain 1 of 2): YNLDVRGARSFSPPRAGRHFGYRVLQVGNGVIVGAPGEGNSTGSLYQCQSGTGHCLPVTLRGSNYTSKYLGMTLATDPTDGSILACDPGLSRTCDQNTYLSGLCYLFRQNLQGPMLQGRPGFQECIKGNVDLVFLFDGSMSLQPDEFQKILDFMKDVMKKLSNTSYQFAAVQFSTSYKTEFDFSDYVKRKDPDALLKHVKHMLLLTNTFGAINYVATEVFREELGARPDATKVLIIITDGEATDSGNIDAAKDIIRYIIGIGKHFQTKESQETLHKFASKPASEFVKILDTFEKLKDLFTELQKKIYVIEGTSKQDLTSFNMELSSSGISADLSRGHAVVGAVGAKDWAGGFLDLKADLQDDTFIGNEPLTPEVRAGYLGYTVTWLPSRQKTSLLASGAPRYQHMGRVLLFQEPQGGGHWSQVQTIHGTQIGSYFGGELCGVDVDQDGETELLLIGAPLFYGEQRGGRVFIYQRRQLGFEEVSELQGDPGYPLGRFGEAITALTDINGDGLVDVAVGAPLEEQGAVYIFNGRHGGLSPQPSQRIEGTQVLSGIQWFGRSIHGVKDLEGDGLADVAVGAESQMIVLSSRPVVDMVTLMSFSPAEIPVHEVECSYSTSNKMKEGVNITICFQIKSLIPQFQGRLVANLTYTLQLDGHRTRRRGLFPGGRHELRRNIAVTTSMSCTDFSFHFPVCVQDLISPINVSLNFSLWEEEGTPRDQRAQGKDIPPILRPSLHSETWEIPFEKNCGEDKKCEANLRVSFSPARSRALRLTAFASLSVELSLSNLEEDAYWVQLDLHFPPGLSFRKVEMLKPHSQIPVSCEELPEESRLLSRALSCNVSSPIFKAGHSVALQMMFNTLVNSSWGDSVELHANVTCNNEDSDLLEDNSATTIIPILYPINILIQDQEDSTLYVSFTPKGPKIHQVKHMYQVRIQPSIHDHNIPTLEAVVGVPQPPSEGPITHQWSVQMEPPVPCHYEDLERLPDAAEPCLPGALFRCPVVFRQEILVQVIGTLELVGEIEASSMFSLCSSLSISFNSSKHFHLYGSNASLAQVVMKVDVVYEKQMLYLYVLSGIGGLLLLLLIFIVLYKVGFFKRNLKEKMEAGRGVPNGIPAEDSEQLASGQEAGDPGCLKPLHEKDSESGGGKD
T1 sequence (P05107 23-769 limits assumed, form in doubt, chain 2 of 2, further chain): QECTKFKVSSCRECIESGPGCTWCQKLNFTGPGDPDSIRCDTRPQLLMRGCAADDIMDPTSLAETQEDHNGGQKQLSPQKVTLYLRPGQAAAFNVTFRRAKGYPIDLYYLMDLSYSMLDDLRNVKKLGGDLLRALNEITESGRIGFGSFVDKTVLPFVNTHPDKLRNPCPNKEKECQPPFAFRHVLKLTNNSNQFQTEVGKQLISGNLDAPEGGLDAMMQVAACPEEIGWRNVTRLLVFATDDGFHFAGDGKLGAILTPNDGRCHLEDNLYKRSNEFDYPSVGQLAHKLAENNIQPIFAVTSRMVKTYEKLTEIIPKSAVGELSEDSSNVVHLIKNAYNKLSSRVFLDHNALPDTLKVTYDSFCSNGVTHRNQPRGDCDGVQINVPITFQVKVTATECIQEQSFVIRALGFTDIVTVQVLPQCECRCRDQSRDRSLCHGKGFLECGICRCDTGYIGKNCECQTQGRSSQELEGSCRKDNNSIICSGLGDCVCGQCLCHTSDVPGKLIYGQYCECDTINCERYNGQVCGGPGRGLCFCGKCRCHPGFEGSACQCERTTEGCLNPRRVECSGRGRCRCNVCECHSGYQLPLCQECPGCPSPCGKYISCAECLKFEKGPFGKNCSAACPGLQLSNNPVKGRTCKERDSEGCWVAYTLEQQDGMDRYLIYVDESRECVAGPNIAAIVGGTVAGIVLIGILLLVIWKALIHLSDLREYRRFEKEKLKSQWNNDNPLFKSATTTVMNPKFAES

B1: sICAM-1 (soluble ICAM-1), P05362 28-480 (ligand, UniProt P05362 28-480, looked up)
chain: QTSVSPSKVILPRGGSVLVTCSTSCDQPKLLGIETPLPKKELLLPGNNRKVYELSNVQEDSQPMCYSNCPDGQSTAKTFLTVYWTPERVELAPLPSWQPVGKNLTLRCQVEGGAPRANLTVVLLRGEKELKREPAVGEPAEVTTTVLVRRDHHGANFSCRTELDLRPQGLELFENTSAPYQLQTFVLPATPPQLVSPRVLEVDTQGTVVCSLDGLFPVSEAQVHLALGDQRLNPTVTYGNDSFSAKASVSVTAEDEGTQRLTCAVILGNQSQETLQTVTIYSFPAPNVILTKPEVSEGTEVTVKCEAHPRAKVTLNGVPAQPLGPRAQLLLKATPEDNGRSFSCSATLEVAGQLIHKNQTRELRVLYGPRLDERDCPGNWTWPENSQQTPMCQAWGNPLPELKCLKDGTFPLPIGESVTVTRDLEGTYLCRARSTQGEVTRKVTVNVLSPRYE
B1 had a fold IC50 against compound 3 in test [1] of over 100 fold. Further, the Schild regression y-intercept in test [2] came out at 8.51. In test [3], the IC50 (as a rule, the concentration that gives 50% inhibition) is 1200 nM.
